Here are results for three substances from paper PMC11847629.

Series [1] can be described thus: GATA3 Western blot, JEG3. The note with it: control: untreated.
A short description of series [2]: CHX chase, Western blot, JEG3. The note with it: control: untreated (respective controls). In general terms: In western blotting, separated proteins are transferred to a membrane and probed.
Series [3] in a line: GATA3 Western blot, JEG3; mRNA equal. The settings on record: glycan lost; control: WT-G plasmid.
The nature of series [4]: CHX chase, Western blot, JEG3, hypoxia. The settings on record: glycan lost; control: WT-G plasmid under 2% O2.
Series [5] in a line: CHX chase, Western blot, JEG3, normoxia. The settings on record: glycan lost; control: WT-G plasmid.
The nature of series [6]: Hypoxic rise of GATA3 protein, Western blot, JEG3. The settings on record: glycan lost; control: WT-G plasmid, 2% vs 21% O2.
Series [7] can be described thus: GATA3 Western blot, primary human trophoblasts. The note with it: glycan gained; control: DMSO.
Series [8] is described as follows: CHX chase, Western blot, primary human trophoblasts. The settings on record: glycan gained; control: untreated (respective controls).

Consider “GATA3 (GATA binding protein 3): Ac45S (OGT inhibitor)”, for which, in series [1] (glycan lost), the expression_or_secretion entry is recorded as “decreases”. Also, the degradation_or_half_life result in series [2] (glycan lost) is “decreases”.

With GATA3 (GATA binding protein 3): T322A-G, the “expression_or_secretion, fold_change” value in series [3] is “decreases”. Besides, the degradation_or_half_life result in series [4] is reported as “changes”; in series [5] it was “decreases”. In addition, in series [6], the expression_or_secretion entry was “abolishes”.

Consider “GATA3 (GATA binding protein 3): TMG (OGA inhibitor)”, for which the expression_or_secretion result in series [1] (glycan gained) and in series [7] was “increases” in each case. Also, the degradation_or_half_life result in series [2] (glycan gained) and in series [8] was “increases” throughout.
